Read-outs that look alike come from different tables or passages of the source.

The target in data set [1] is AcrVIB1-His (R. anatipestifer). The experiment in a line: MST.
In data set [2] the target is AcrVIB1 (R. anatipestifer). Kind of data set: SEC-MALS.
Data set [3] addresses AcrVIB1 (R. anatipestifer). Kind of data set: other fluorescence titration.
Data set [4] concerns the target T1, PbuCas13b (UniProt E6K398 1-1127).
T1 sequence: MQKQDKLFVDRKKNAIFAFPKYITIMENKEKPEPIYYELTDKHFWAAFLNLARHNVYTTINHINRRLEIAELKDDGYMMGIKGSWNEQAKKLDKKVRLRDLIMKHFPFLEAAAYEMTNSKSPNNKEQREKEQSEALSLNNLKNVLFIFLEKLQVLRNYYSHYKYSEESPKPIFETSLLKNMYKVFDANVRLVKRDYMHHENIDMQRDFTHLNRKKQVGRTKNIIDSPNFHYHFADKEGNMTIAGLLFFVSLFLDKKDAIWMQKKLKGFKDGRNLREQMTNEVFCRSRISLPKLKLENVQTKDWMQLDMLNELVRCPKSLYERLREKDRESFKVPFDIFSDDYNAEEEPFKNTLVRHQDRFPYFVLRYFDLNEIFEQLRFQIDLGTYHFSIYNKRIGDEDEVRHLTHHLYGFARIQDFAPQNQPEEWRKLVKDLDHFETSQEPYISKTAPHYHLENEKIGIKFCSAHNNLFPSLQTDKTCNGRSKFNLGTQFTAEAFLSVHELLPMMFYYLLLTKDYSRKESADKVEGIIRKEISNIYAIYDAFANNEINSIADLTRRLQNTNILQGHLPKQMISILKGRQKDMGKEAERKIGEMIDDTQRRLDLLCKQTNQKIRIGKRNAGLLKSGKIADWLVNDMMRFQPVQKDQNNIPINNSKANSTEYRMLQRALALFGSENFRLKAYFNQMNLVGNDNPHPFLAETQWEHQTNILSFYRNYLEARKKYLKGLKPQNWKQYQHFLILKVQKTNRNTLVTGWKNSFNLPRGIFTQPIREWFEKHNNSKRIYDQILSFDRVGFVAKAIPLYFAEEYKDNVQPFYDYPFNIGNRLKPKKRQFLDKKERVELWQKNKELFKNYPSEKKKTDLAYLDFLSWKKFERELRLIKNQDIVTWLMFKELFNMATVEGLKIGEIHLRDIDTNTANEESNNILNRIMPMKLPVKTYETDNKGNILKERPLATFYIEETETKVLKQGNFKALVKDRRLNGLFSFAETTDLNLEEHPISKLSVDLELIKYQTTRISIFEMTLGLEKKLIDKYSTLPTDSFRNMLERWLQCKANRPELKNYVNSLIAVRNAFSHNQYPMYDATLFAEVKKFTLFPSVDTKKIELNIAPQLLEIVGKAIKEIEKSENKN
The experiment in a line: MST.

The target in data set [5] is T1, PbuCas13b. Kind of data set: MST. This is another data set of the same source.

What is called Kd is the free concentration of one partner at which half of the binding sites on the other are occupied at equilibrium, for simple one-to-one binding. A lower Kd goes with tighter binding. In data set [1], PbuCas13b (enzyme) registered a Kd of 44 nM.

A word on the stoichiometry N: it is a count of units in the complex or per binding partner. Regarding “PbuCas13b Helical-2 domain (residues 579 - 747) (domain or fragment)”, in data set [2], the stoichiometry N stood at 1. Further, in data set [3], the Kd worked out at 251 nM.

B1: crRNA-1 processed (KW-RNA-002) (structured_RNA)
RNA: CGUCGCCGUCCAGCUCGACCAGGAUGGGAAGUUGCAUCUGCCUUCUUUUUGAAAGGUAAAAACAAC
In the data set with PbuCas13b [4], B1 returned a Kd of about 1000 nM.

B2: crRNA-1 processed / target RNA 1 (KW-RNA-005) (mixed)
RNA 1: CGUCGCCGUCCAGCUCGACCAGGAUGGGAAGUUGCAUCUGCCUUCUUUUUGAAAGGUAAAAACAAC
RNA 2: ACUGGCGUUGUUCCCAUCCUGGUCGAGCUGGACGGCGACGUAAACGGCCA
In turn, B2 displayed a Kd with PbuCas13b [5] of 85 nM.
